In PMC5409479:

Legend:
[1] = biological target: human GLP-1R E125azF (human) (UniProt P43220)
[2] = biological target: human GLP-1R V30azF (human) (UniProt P43220)
[3] = biological target: human GLP-1R S31azF (human) (UniProt P43220)
[4] = biological target: human GLP-1R Y101azF (human) (UniProt P43220)
[5] = biological target: human GLP-1R L118azF (human) (UniProt P43220)
[6] = biological target: human GLP-1R L32azF (human) (UniProt P43220)
[7] = biological target: human GLP-1R S135azF (human) (UniProt P43220)
Chain of human GLP-1R S135azF (human) (P43220 24-463 S135F): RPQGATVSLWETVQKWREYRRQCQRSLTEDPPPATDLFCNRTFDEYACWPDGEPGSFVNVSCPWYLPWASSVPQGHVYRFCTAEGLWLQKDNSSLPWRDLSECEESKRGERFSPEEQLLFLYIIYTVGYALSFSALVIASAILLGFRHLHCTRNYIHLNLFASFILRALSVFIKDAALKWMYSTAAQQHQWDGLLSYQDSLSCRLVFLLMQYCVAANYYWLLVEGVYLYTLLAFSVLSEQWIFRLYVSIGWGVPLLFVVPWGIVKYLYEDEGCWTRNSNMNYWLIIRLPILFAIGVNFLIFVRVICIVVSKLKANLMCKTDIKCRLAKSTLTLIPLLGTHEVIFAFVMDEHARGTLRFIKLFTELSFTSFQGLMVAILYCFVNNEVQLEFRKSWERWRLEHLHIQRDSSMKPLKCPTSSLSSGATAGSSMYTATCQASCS

[8] = biological target: human GLP-1R Y69azF (human) (UniProt P43220)
Chain of human GLP-1R Y69azF (human) (P43220 24-463 Y69F): as the sequence (P43220 24-463 S135F) above, with Y46F, F112S counted along it

[9] = biological target: human GLP-1R F103azF (human) (UniProt P43220)
Chain of human GLP-1R F103azF (human) (P43220 24-463): as the sequence (P43220 24-463 S135F) above, with F112S counted along it

[10] = biological target: human GLP-1R P90azF (human) (UniProt P43220)
Chain of human GLP-1R P90azF (human) (P43220 24-463 P90F): as the sequence (P43220 24-463 S135F) above, with P67F, F112S counted along it

[11] = biological target: human GLP-1R F80azF (human) (UniProt P43220)
Chain of human GLP-1R F80azF (human) (P43220 24-463): as the sequence (P43220 24-463 S135F) above, with F112S counted along it

[12] = biological target: human GLP-1R R134azF (human) (UniProt P43220)
Chain of human GLP-1R R134azF (human) (P43220 24-463 R134F): as the sequence (P43220 24-463 S135F) above, with R111F, F112S counted along it

[13] = biological target: human GLP-1R L89azF (human) (UniProt P43220)
Chain of human GLP-1R L89azF (human) (P43220 24-463 L89F): as the sequence (P43220 24-463 S135F) above, with L66F, F112S counted along it

[14] = biological target: human GLP-1R R121azF (human) (UniProt P43220)
Chain of human GLP-1R R121azF (human) (P43220 24-463 R121F): as the sequence (P43220 24-463 S135F) above, with R98F, F112S counted along it

[15] = biological target: human GLP-1R W91azF (human) (UniProt P43220)
Chain of human GLP-1R W91azF (human) (P43220 24-463 W91F): as the sequence (P43220 24-463 S135F) above, with W68F, F112S counted along it

[16] = biological target: wild-type human glucagon-like peptide-1 receptor (double c-Myc, V5) (human) (UniProt P43220)
Chain of wild-type human glucagon-like peptide-1 receptor (double c-Myc, V5) (human) (P43220 24-463): as the sequence (P43220 24-463 S135F) above, with F112S counted along it

[17] = biological target: human GLP-1R E138azF (human) (UniProt P43220)
Chain of human GLP-1R E138azF (human) (P43220 24-463 E138F): as the sequence (P43220 24-463 S135F) above, with F112S, E115F counted along it

[18] = biological target: human GLP-1R P119azF (human) (UniProt P43220)
Chain of human GLP-1R P119azF (human) (P43220 24-463 P119F): as the sequence (P43220 24-463 S135F) above, with P96F, F112S counted along it

[19] = biological target: human GLP-1R Y88azF (human) (UniProt P43220)
Chain of human GLP-1R Y88azF (human) (P43220 24-463 Y88F): as the sequence (P43220 24-463 S135F) above, with Y65F, F112S counted along it

[20] = biological target: human GLP-1R T35azF (human) (UniProt P43220)
Chain of human GLP-1R T35azF (human) (P43220 other isoform, or with tags, fused parts or gaps): as the sequence (P43220 24-463 S135F) above, with T12F, F112S counted along it

[21] = biological target: human GLP-1R R40azF (human) (UniProt P43220)
Chain of human GLP-1R R40azF (human) (P43220 other isoform, or with tags, fused parts or gaps): as the sequence (P43220 24-463 S135F) above, with R17F, F112S counted along it

[22] = biological target: human GLP-1R S124azF (human) (UniProt P43220)
Chain of human GLP-1R S124azF (human) (P43220 24-463 S124F): as the sequence (P43220 24-463 S135F) above, with S101F, F112S counted along it

[23] = biological target: human GLP-1R W33azF (human) (UniProt P43220)
Chain of human GLP-1R W33azF (human) (P43220 other isoform, or with tags, fused parts or gaps): as the sequence (P43220 24-463 S135F) above, with W10F, F112S counted along it

[24] = biological target: human GLP-1R L123azF (human) (UniProt P43220)
Chain of human GLP-1R L123azF (human) (P43220 24-463 L123F): as the sequence (P43220 24-463 S135F) above, with L100F, F112S counted along it

[25] = biological target: human GLP-1R V36azF (human) (UniProt P43220)
Chain of human GLP-1R V36azF (human) (P43220 other isoform, or with tags, fused parts or gaps): as the sequence (P43220 24-463 S135F) above, with V13F, F112S counted along it

[26] = biological target: human GLP-1R Y42azF (human) (UniProt P43220)
Chain of human GLP-1R Y42azF (human) (P43220 other isoform, or with tags, fused parts or gaps): as the sequence (P43220 24-463 S135F) above, with Y19F, F112S counted along it

[27] = biological target: human GLP-1R E127azF (human) (UniProt P43220)
Chain of human GLP-1R E127azF (human) (P43220 24-463 E127F): as the sequence (P43220 24-463 S135F) above, with E104F, F112S counted along it

[28] = biological target: human GLP-1R W39azF (human) (UniProt P43220)
Chain of human GLP-1R W39azF (human) (P43220 other isoform, or with tags, fused parts or gaps): as the sequence (P43220 24-463 S135F) above, with W16F, F112S counted along it

[29] = biological target: human GLP-1R S116azF (human) (UniProt P43220)
Chain of human GLP-1R S116azF (human) (P43220 24-463 S116F): as the sequence (P43220 24-463 S135F) above, with S93F, F112S counted along it

[30] = biological target: human GLP-1R E68azF (human) (UniProt P43220)
Chain of human GLP-1R E68azF (human) (P43220 24-463 E68F): as the sequence (P43220 24-463 S135F) above, with E45F, F112S counted along it

[31] = biological target: human GLP-1R S117azF (human) (UniProt P43220)
Chain of human GLP-1R S117azF (human) (P43220 24-463 S117F): as the sequence (P43220 24-463 S135F) above, with S94F, F112S counted along it

[32] = biological target: human GLP-1R F61azF (human) (UniProt P43220)
Chain of human GLP-1R F61azF (human) (P43220 24-463): as the sequence (P43220 24-463 S135F) above, with F112S counted along it

[33] = biological target: human GLP-1R A70azF (human) (UniProt P43220)
Chain of human GLP-1R A70azF (human) (P43220 24-463 A70F): as the sequence (P43220 24-463 S135F) above, with A47F, F112S counted along it

[34] = biological target: wild-type human glucagon-like peptide-1 receptor (double c-Myc, V5) (human) (UniProt P43220); remark: listed apart in the source

Chain of human GLP-1R V30azF (human) (P43220 other isoform, or with tags, fused parts or gaps): as the sequence (P43220 24-463 S135F) above, with V7F, F112S counted along it
Chain of human GLP-1R Y101azF (human) (P43220 24-463 Y101F): as the sequence (P43220 24-463 S135F) above, with Y78F, F112S counted along it
Chain of human GLP-1R L32azF (human) (P43220 other isoform, or with tags, fused parts or gaps): as the sequence (P43220 24-463 S135F) above, with L9F, F112S counted along it
Chain of human GLP-1R S31azF (human) (P43220 other isoform, or with tags, fused parts or gaps): as the sequence (P43220 24-463 S135F) above, with S8F, F112S counted along it
Chain of human GLP-1R L118azF (human) (P43220 24-463 L118F): as the sequence (P43220 24-463 S135F) above, with L95F, F112S counted along it
Chain of human GLP-1R E125azF (human) (P43220 24-463 E125F): as the sequence (P43220 24-463 S135F) above, with E102F, F112S counted along it

## exendin-4 (from UniProt P26349 48-87) (peptide)
[1]
  exendin-4-mediated cAMP accumulation in HEK293T cells (+azF), pEC50: 10.3 -log10 M
[2]
  exendin-4-mediated cAMP accumulation in HEK293T cells (+azF), pEC50: 11.2 -log10 M
[3]
  exendin-4-mediated cAMP accumulation in HEK293T cells (+azF), pEC50: 11.1 -log10 M
[4]
  exendin-4-mediated cAMP accumulation in HEK293T cells (+azF), pEC50: 11.5 -log10 M
[5]
  exendin-4-mediated cAMP accumulation in HEK293T cells (+azF), pEC50: 11.5 -log10 M
[6]
  exendin-4-mediated cAMP accumulation in HEK293T cells (+azF), pEC50: 11.1 -log10 M
[7]
  exendin-4-mediated cAMP accumulation in HEK293T cells (+azF), pEC50: 11.5 -log10 M
[8]
  exendin-4-mediated cAMP accumulation in HEK293T cells (+azF), pEC50: 10.8 -log10 M
[9]
  exendin-4-mediated cAMP accumulation in HEK293T cells (+azF), pEC50: 11.4 -log10 M
[10]
  exendin-4-mediated cAMP accumulation in HEK293T cells (+azF), pEC50: 9.9 -log10 M
[11]
  exendin-4-mediated cAMP accumulation in HEK293T cells (+azF), pEC50: 11.3 -log10 M
[12]
  exendin-4-mediated cAMP accumulation in HEK293T cells (+azF), pEC50: 11.1 -log10 M
[13]
  exendin-4-mediated cAMP accumulation in HEK293T cells (+azF), pEC50: 9.6 -log10 M
[14]
  exendin-4-mediated cAMP accumulation in HEK293T cells (+azF), pEC50: 10 -log10 M
[15]
  exendin-4-mediated cAMP accumulation in HEK293T cells (+azF), pEC50: 11.5 -log10 M
[16]
  exendin-4-mediated cAMP accumulation in HEK293T cells, pEC50: 10.8 -log10 M
[17]
  exendin-4-mediated cAMP accumulation in HEK293T cells (+azF), pEC50: 11 -log10 M
[18]
  exendin-4-mediated cAMP accumulation in HEK293T cells (+azF), pEC50: 11.4 -log10 M
[19]
  exendin-4-mediated cAMP accumulation in HEK293T cells (+azF), pEC50: 10.6 -log10 M
[20]
  exendin-4-mediated cAMP accumulation in HEK293T cells (+azF), pEC50: 9.5 -log10 M
[21]
  exendin-4-mediated cAMP accumulation in HEK293T cells (+azF), pEC50: 11.5 -log10 M
[22]
  exendin-4-mediated cAMP accumulation in HEK293T cells (+azF), pEC50: 11.4 -log10 M
[23]
  exendin-4-mediated cAMP accumulation in HEK293T cells (+azF), pEC50: 11.4 -log10 M
[24]
  exendin-4-mediated cAMP accumulation in HEK293T cells (+azF), pEC50: 11.2 -log10 M
[25]
  exendin-4-mediated cAMP accumulation in HEK293T cells (+azF), pEC50: 11.4 -log10 M
[26]
  exendin-4-mediated cAMP accumulation in HEK293T cells (+azF), pEC50: 10.6 -log10 M
[27]
  exendin-4-mediated cAMP accumulation in HEK293T cells (+azF), pEC50: 10.8 -log10 M
[28]
  exendin-4-mediated cAMP accumulation in HEK293T cells (+azF), pEC50: 10.6 -log10 M
[29]
  exendin-4-mediated cAMP accumulation in HEK293T cells (+azF), pEC50: 11.4 -log10 M
[30]
  exendin-4-mediated cAMP accumulation in HEK293T cells (+azF), pEC50: 11.4 -log10 M
[31]
  exendin-4-mediated cAMP accumulation in HEK293T cells (+azF), pEC50: 11.1 -log10 M
[32]
  exendin-4-mediated cAMP accumulation in HEK293T cells (+azF), pEC50: 11.3 -log10 M
[33]
  exendin-4-mediated cAMP accumulation in HEK293T cells (+azF), pEC50: 9.1 -log10 M

## fluorescein(Lys-20)-exendin-4 (peptide)
[34]
  cAMP accumulation in HEK293T cells transiently expressing the human GLP-1R, pEC50: 9.3 -log10 M
